Reference: patent publication US20220275101A1, “Use of Approved Anti-CD38 Antibody Drug Product to Treat Light Chain Amyloidosis” (Janssen Biotech, Inc., priority 2021, published 2022)
Marks after values point to notes of the source that are not given here.

What was measured:
[1] = system: relapsed or refractory multiple myeloma; test: COLUMBA monotherapy, efficacy; format: in vivo, human
Text: The major efficacy outcome measures were ORR by the IMWG response criteria and maximum Ctrough at pre-dose Cycle 3 Day 1 [see Clinical Pharmacology (12.3)]. Randomization was stratified by body weight, myeloma type, and number of prior lines of therapy.

[2] = Daratumumab pharmacokinetics in patients with multiple myeloma; format: in vivo, human
[3] = COLUMBA monotherapy, safety (relapsed/refractory multiple myeloma)
Experimental: FASPRO 1,800 mg/30,000 units administered subcutaneously or daratumumab 16 mg/kg administered intravenously; each administered once weekly from weeks 1 to 8, once every 2 weeks from weeks 9 to 24 and once every 4 weeks starting with week 25 until disease progression or unacceptable toxicity.

[4] = Daratumumab pharmacokinetics in patients with light chain (AL) amyloidosis; format: in vivo, human
[5] = Daratumumab pharmacokinetics after DARZALEX FASPRO, population not specified or pooled; format: in vivo, human; conditions: DARZALEX FASPRO as monotherapy or combination therapy
[6] = target: T1, CD38 on red blood cells (RBCs) (Homo sapiens, UniProt P28907); test: Interference with Indirect Antiglobulin Test (Indirect Coombs test)
T1 construct: endogenous in cells; host or cells: red blood cells (reagent RBCs used in blood-bank compatibility testing)
Text: Daratumumab binds to CD38 on red blood cells (RBCs) and results in a positive Indirect Antiglobulin Test (Indirect Coombs test). Daratumumab-mediated positive indirect antiglobulin test may persist for up to 6 months after the last daratumumab administration. Daratumumab bound to RBCs masks detection of antibodies to minor antigens in the patient's serum [see References (15)]. The determination of a patient's ABO and Rh blood type are not impacted [see Drug Interactions (7.1)].
Daratumumab binds to CD38 on RBCs and interferes with compatibility testing, including antibody screening and cross matching. Daratumumab interference mitigation methods include treating reagent RBCs with dithiothreitol (DTT) to disrupt daratumumab binding [see References (15)] or genotyping. Since the Kell blood group system is also sensitive to DTT treatment, supply K-negative units after ruling out or identifying alloantibodies using DTT-treated RBCs.

[7] = Hyaluronidase developmental toxicity in mice; format: in vivo
Text: There were no effects on pre- and post-natal development through sexual maturity in offspring of mice treated daily from implantation through lactation with 990,000 U/kg hyaluronidase subcutaneously, which is 134 times higher than the human doses.

[8] = Hyaluronidase effect on permeability of the subcutaneous tissue
Text: Hyaluronan is a polysaccharide found in the extracellular matrix of the subcutaneous tissue. It is depolymerized by the naturally occurring enzyme hyaluronidase. Unlike the stable structural components of the interstitial matrix, hyaluronan has a half-life of approximately 0.5 days. Hyaluronidase increases permeability of the subcutaneous tissue by depolymerizing hyaluronan. In the doses administered, hyaluronidase in DARZALEX FASPRO acts locally. The effects of hyaluronidase are reversible and permeability of the subcutaneous tissue is restored within 24 to 48 hours.

[9] = Hyaluronidase subcutaneous exposure and toxicity in monkeys; format: in vivo
Experimental: No carcinogenicity, genotoxicity, or fertility studies were conducted for recombinant human hyaluronidase. […] As hyaluronidase is a recombinant form of the endogenous human hyaluronidase, no carcinogenicity, mutagenesis, or effects on fertility are expected.

[10] = monkeys, 22,000 U/kg/week subcutaneously for 39 weeks

With “Intravenous Daratumumab: daratumumab 16 mg/kg administered intravenously, comparator arm in COLUMBA” the “CR or better, %” value [1] was 2.7%, the Median progression-free survival [1] was 6.1 months and the “Partial response (PR), %” value [1] was 20%. The “Very good partial response (VGPR), %” value [1] was 14%, the “Overall response (sCR + CR + VGPR + PR), %” value ([1]; intent-to-treat population) was 37% and the “Observed mean ± SD max Ctrough after 8th dose” value ([2]; patients with multiple myeloma) was 522 ± 226^a, b μg/mL. For the same molecule, the “Back pain, All Grades” value ([3]; monotherapy) was 12%, the “Back pain, Grade ≥ 3” value ([3]; monotherapy) was 3^# % and the “Chills, All Grades” value ([3]; monotherapy) was 12%. For the same molecule, the “Chills, Grade ≥ 3” value ([3]; monotherapy) was 1^# %, the “Cough, All Grades” value ([3]; monotherapy) was 14% and the “Cough, Grade ≥ 3” value ([3]; monotherapy) was 0^ %. For the same molecule, the “Diarrhea, All Grades” value ([3]; monotherapy) was 11%, the “Diarrhea, Grade ≥ 3” value ([3]; monotherapy) was 0.4^# % and the “Dyspnea, All Grades” value ([3]; monotherapy) was 11%. The “Dyspnea, Grade ≥ 3” value ([3]; monotherapy) was 1^# %, the “Fatigue, All Grades” value ([3]; monotherapy) was 16% and the “Fatigue, Grade ≥ 3” value ([3]; monotherapy) was 2^# %. The “Infusion reactions, All Grades” value ([3]; monotherapy) was 34%, the “Infusion reactions, Grade ≥ 3” value ([3]; monotherapy) was 5^# % and the “Nausea, All Grades” value ([3]; monotherapy) was 11%. For the same molecule, the “Nausea, Grade ≥ 3” value ([3]; monotherapy) was 0.4^# %, the “Pneumonia, All Grades” value ([3]; monotherapy) was 10% and the “Pneumonia, Grade ≥ 3” value ([3]; monotherapy) was 6^@ %. The “Pyrexia, All Grades” value ([3]; monotherapy) was 13%, the “Pyrexia, Grade ≥ 3” value ([3]; monotherapy) was 1^# % and the “Upper respiratory tract infection, All Grades” value ([3]; monotherapy) was 22%. For the same molecule, the “Upper respiratory tract infection, Grade ≥ 3” value ([3]; monotherapy) was 1^# %, the “Decreased hemoglobin, All Grades” value ([3]; worsening from baseline) was 39% and the “Decreased hemoglobin, Grades 3-4” value ([3]; worsening from baseline) was 16%. For the same molecule, the “Decreased leukocytes, All Grades” value ([3]; worsening from baseline) was 57%, the “Decreased leukocytes, Grades 3-4” value ([3]; worsening from baseline) was 14% and the “Decreased lymphocytes, All Grades” value ([3]; worsening from baseline) was 56%. The “Decreased lymphocytes, Grades 3-4” value ([3]; worsening from baseline) was 36%, the “Decreased neutrophils, All Grades” value ([3]; worsening from baseline) was 43% and the “Decreased neutrophils, Grades 3-4” value ([3]; worsening from baseline) was 11%. The “Decreased platelets, All Grades” value ([3]; worsening from baseline) was 45% and the “Decreased platelets, Grades 3-4” value ([3]; worsening from baseline) was 14%.

In the case of “Daratumumab: IgG1κ human monoclonal antibody that binds CD38; heavy chain SEQ ID NO: 12, light chain SEQ ID NO: 13”, the “estimated mean volume of distribution” value ([4]; CV 28%) is reported as 10.8 L, the “estimated mean (CV %) linear clearance” value ([4]; CV 42%) is reported as 210 mL/day and the “estimated mean (CV %) elimination half-life associated with linear clearance” value ([4]; CV 74%) is reported as 28 days. For the same molecule, the “estimated mean volume of distribution, peripheral compartment” value ([2]; multiple myeloma) was 3.8 L, the “estimated mean (CV %) elimination half-life associated with linear clearance” value ([2]; multiple myeloma, CV 22%) was 20 days and the “estimated mean (CV) volume of distribution for the central compartment” value ([2]; multiple myeloma, CV 37%) was 5.2 L. The “estimated mean (CV %) linear clearance” value ([2]; multiple myeloma, CV 59%) was 119 mL/day, the “effect of sex, age (33 to 92 years), renal impairment (CLcr 15 to 89 mL/min) and mild hepatic impairment on pharmacokinetics” value [5] was “no clinically meaningful effect” and the “persistence of positive indirect antiglobulin test after the last administration” value [6] was “up to 6 months”. The “Indirect Antiglobulin Test (Indirect Coombs test) result” value ([6]; binding to CD38 on RBCs) was “positive”.

B1: hyaluronidase: recombinant human hyaluronidase rHuPH20, SEQ ID NO: 22, residues 36-482 of wild type human hyaluronidase (protein, listed as Homo sapiens)
chain: LNFRAPPVIPNVPFLWAWNAPSEFCLGKFDEPLDMSLFSFIGSPRINATGQGVTIFYVDRLGYYPYIDSITGVTVNGGIPQKISLQDHLDKAKKDITFYMPVDNLGMAVIDWEEWRPTWARNWKPKDVYKNRSIELVQQQNVQLSLTEATEKAKQEFEKAGKDFLVETIKLGKLLRPNHLWGYYLFPDCYNHHYKKPGYNGSCFNVEIKRNDDLSWLWNESTALYPSIYLNTQQSPVAATLYVRNRVREAIRVSKIPDAKSPLPVFAYTRIVFTDQVLKFLSQDELVYTFGETVALGASGIVIWGTLSIMRSMKSCLLLDNYMETILNPYIINVTLAAKMCSQVLCQEQGVCIRKNWNSSDYLHLNPDNFAIQLEKGGKFTVRGKPTLEDLEQFSEKFYCSCYSTLSCKEKADVKDTDAVDVCIADGVCIDAFLKPPMETEEPQIFY
For B1, the “effects on post-natal development through sexual maturity in offspring” value ([7]; mice treated daily during lactation, 990,000 U/kg subcutaneously) was “no effects”, the “effects on pre- and post-natal development through sexual maturity in offspring” value ([7]; mice treated daily from implantation through lactation, 990,000 U/kg subcutaneously) was “no effects” and the “effects on embryo-fetal development” value ([7]; pregnant mice, 330,000 U/kg subcutaneously daily during organogenesis) was “no effects”. The “time until permeability of the subcutaneous tissue is restored” value [8] was 24 to 48 h, the “systemic exposure of hyaluronidase” value ([9]; monkeys, 22,000 U/kg subcutaneously (12 times the human dose)) was “No systemic exposure of hyaluronidase was detected” and the “effects on reproductive tissues and function” value [9, 10] was “no effects”. The “systemic exposure of hyaluronidase” value [9, 10] was “no systemic exposure”.
